Test [1] addresses TOX (UniProt Q66JW3). Briefly: TOX co-IP from EL4 nuclear extract, LC-MS/MS, MiST.
Test [2] deals with TOX (UniProt Q66JW3). Briefly: anti-TOX IP from EL4 nuclear extract, LC-MS/MS, MiST vs IgG control.
Chain of TOX (Q66JW3 whole entry): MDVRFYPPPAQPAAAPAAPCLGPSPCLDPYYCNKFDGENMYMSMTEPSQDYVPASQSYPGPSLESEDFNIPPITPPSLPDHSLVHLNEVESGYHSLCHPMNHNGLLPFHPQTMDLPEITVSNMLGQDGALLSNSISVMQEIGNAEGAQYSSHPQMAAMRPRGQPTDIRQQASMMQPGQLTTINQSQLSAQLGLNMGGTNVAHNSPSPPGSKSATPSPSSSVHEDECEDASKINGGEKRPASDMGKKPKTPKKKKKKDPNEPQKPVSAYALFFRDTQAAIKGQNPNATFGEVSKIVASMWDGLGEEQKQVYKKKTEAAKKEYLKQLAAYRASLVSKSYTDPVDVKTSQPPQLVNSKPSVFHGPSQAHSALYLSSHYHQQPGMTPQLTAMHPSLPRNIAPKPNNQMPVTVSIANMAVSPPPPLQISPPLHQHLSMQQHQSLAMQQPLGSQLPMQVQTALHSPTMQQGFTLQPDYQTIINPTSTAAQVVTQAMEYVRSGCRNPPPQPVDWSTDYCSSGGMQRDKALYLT

B1: Spty2d1 (protein, UniProt Q68FG3 1-682, looked up)
Protein SPT2 homolog: MDFREILLIASKGQGVNHVPKRYSLAVGPPKKDPKVKGVQSAAVQAFLRRKEEELRQKALEEKKRKEELVKKRIELKHDKKARAMAKRTKDNFHGYDGIPVEEKTKKKQLVESHLNQGTDQEYDVEEEDFIDYNQAELDQDYEEEQEPPKAESKPKAPLKSAPSPMNFTDLLRLAEKKQFEPVEIKVVKKAEDRPLTAEELREREFLERKHRKKKPEPDAKLPPPVLKKAPSHKDIMGTKPSRGAGDRQLASKGLPFPQAEKKFRPSTASEKQAALSSPKSLPGERTKVGSGSSTQPSLREGHNRPVFNGAGKPRPSTCSPSVPKTPASGTQKSASEHKAKKPLPSHPSHSKPGPTVLSHNKSKSPGVRQPGSNSGSAPGQPNPGTARPTLSSGPVPRRQNGSSSSGPEQSAGGIRKLASNSHLSGRTLNGTNGPGRPASSSSGPGRPISGSAGSGRPVGSSGGPGQPVNNPHDLRRPMNSLSSPGRAVSGPGRSISGSIPAGRTVNSGPGRPVSSLGPGRAVSNPGLPTKPRCTVVSETISSKNIISRSSNGQINGMKPLLSGYRSAQGPQRLPFPTGYKRPREYEEDDDDEYDSEMDDFIEDEGEPQEEISKHIREIFGYDRKKYKDESDYALRYMESSWKEQQKEEAKSLRLGMQEDLEEMRREEEELKRRKAKKLKRH
In the test with TOX [1], B1 displayed an Abundance of 1.04e-05, a MiST Score of 0.846, a Reproducibility of 0.848 and a Specificity of 0.852.

B2: Cwc27 (protein, UniProt Q3TKY6 2-469, looked up)
Spliceosome-associated protein CWC27 homolog: SNIYIQEPPTNGKVLLKTTAGDIDIELWSKEAPKACRNFIQLCLEAYYDNTIFHRVVPGFIVQGGDPTGTGTGGESIYGAPFKDEFHSRLRFNRRGLVAMANAGPHDNGSQFFFTLGRADELNNKHTIFGKVTGDTVYNMLRLTEVDIDDEERPRNPHRIKSCEVLFNPFDDITPREIKKPKNEKPEEEVKKLKPKGTKNFSLLSFGEEAEEEEEEVNRVSQSMKGRSKSSHDLLKDDPHLSSVPAVESEKDDATGDLEDDGEDDSAERDEYMEDDEKNLMRERIAKRLKKDASASVKSAGDGEKKPASRSEELRKEARQLKRELLAAKQKKETAIKVEEGREEEEAAPDGAVAEYRREKQKYEALRKQQPKKGTSREDQTLALLSQFKSKLTQAITETPENSVPEAEVEDDEGWMSHVLQFEDKTRKVKDASMQDSDTFEIYDPRNPVNKRRREESKKLLREKKERR
With B2, in the test with TOX [2], the Abundance came out at 1.14e-05, the MiST Score amounted to 0.758, the Reproducibility came to 0.435 and the Specificity was 0.91.

The values are drawn from patent publication US20210071139A1.
